Our source for the Kd values is paper PMC13600239.

What is called Kd is the free concentration of one partner at which half of the binding sites on the other are occupied at equilibrium, for simple one-to-one binding.

One assay deals with Rwt7^HMA-6His (wheat). Kind of assay: ITC; […]; 25°C; 20 mM HEPES pH 7.5, 150 mM NaCl; triplicate, […]. For orientation: Isothermal titration calorimetry measures the heat released or taken up as one component is titrated into another.
The target of assay [1] is Rmo2^HMA (integrated HMA domain of the barley tandem kinase protein Rmo2) (barley). The description is as above.

In the case of “PWT7 (Magnaporthe oryzae effector) (natural protein)”, the Kd with Rwt7^HMA-6His (wheat) was 2.92 nM.

Regarding “PBY2 (Magnaporthe oryzae effector) (natural protein)”, in assay [1], the dissociation constant Kd was 53.5 nM.
